Kd and IC50 data for six sequences are collected here from the Immune Epitope Database (IEDB).

The target of experiment [1] is HLA-B*07:02. The experiment can be described thus: IEDB peptide-MHC binding, purified MHC/direct/fluorescence; filed as Kd, often an IC50 or EC50 that approximates it; ≥ and ≤ were set here for values at or beyond the usual limits of such assays. The conditions noted are these: source organism: Mycobacterium tuberculosis.
In experiment [2] the target is HLA-B*27:05. The description is as above. The conditions noted are these: source organism: Mycobacterium tuberculosis.
Experiment [3] deals with HLA-B*46:01. Described as above. As to conditions: source organism: Mycobacterium tuberculosis.
The target of experiment [4] is HLA-A*31:01. The experiment is described as above. As to conditions: source organism: Mycobacterium tuberculosis.
Experiment [5] addresses HLA-A*68:02. The description is as above. As to conditions: source organism: Mycobacterium tuberculosis.
Experiment [6] concerns the target HLA-A*01:01. Described as above. As to conditions: source organism: Mycobacterium tuberculosis.
In experiment [7] the target is HLA-A*26:01. Described as above. As to conditions: source organism: Mycobacterium tuberculosis str. Haarlem.
Experiment [8] concerns the target HLA-B*18:01. Described as above. The conditions noted are these: source organism: Mycobacterium tuberculosis.
The target of experiment [9] is HLA-A*11:01. The description is as above. As to conditions: source organism: Mycobacterium tuberculosis.
The target of experiment [10] is HLA-B*15:01. Described as above.
For experiment [11], the target named is HLA-B*48:01. Described as above. The conditions noted are these: source organism: Mycobacterium tuberculosis.
The target in experiment [12] is HLA-B*57:01. The experiment is described as above. The conditions noted are these: source organism: Mycobacterium tuberculosis.
In experiment [13] the target is HLA-B*40:01. Described as above. The conditions noted are these: source organism: Mycobacterium tuberculosis.
Experiment [14] has as its target HLA-B*58:01. The experiment is described as above.
Experiment [15] has as its target HLA-A*02:01. The experiment is described as above. As to conditions: source organism: Mycobacterium tuberculosis.
Experiment [16] addresses HLA-A*69:01. The experiment is described as above. As to conditions: source organism: Mycobacterium tuberculosis.
Experiment [17] has as its target HLA-B*35:01. The experiment can be described thus: IEDB peptide-MHC binding, purified MHC/competitive/fluorescence; filed as Kd, often an IC50 or EC50 that approximates it; ≥ and ≤ were set here for values at or beyond the usual limits of such assays. The conditions noted are these: source organism: Mycolicibacterium gilvum PYR-GCK.
Experiment [18] has as its target HLA-A*26:03. Described as above. As to conditions: source organism: Mycolicibacterium gilvum PYR-GCK.
Experiment [19] addresses HLA-A*02:06. The description is as above. As to conditions: source organism: Mycolicibacterium gilvum PYR-GCK.
For experiment [20], the target named is HLA-B*15:17. The description is as above.
Experiment [21] addresses HLA-B*53:01. The experiment can be described thus: IEDB peptide-MHC binding, purified MHC/competitive/fluorescence; ≥ and ≤ were set here for values at or beyond the usual limits of such assays. As to conditions: source organism: Human herpesvirus 4 type 2.
In experiment [22] the target is HLA-A*11:01. As to the kind of experiment: IEDB peptide-MHC binding, purified MHC/competitive/fluorescence; filed as Kd, often an IC50 or EC50 that approximates it; ≥ and ≤ were set here for values at or beyond the usual limits of such assays. The conditions noted are these: source organism: human gammaherpesvirus 4.
Experiment [23] deals with HLA-B*40:01. The experiment is described as above.
Experiment [24] concerns the target HLA-B*51:01. Described as above. As to conditions: source organism: Burkholderia pseudomallei 668.
The target of experiment [25] is HLA-A*03:01. Described as above. The conditions noted are these: source organism: Burkholderia pseudomallei 668.
Experiment [26] concerns the target HLA-B*45:06. Described as above. As to conditions: source organism: Burkholderia pseudomallei 668.
In experiment [27] the target is HLA-B*83:01. The description is as above. As to conditions: source organism: Burkholderia pseudomallei 668.
In experiment [28] the target is HLA-B*46:01. The experiment is described as above. The conditions noted are these: source organism: Burkholderia pseudomallei 668.
The target of experiment [29] is HLA-A*24:03. The experiment is described as above. The conditions noted are these: source organism: Burkholderia pseudomallei 668.
Experiment [30] deals with HLA-A*23:01. Described as above. As to conditions: source organism: Burkholderia pseudomallei 668.
Experiment [31] has as its target HLA-A*29:02. The experiment is described as above. As to conditions: source organism: Burkholderia pseudomallei 668.
Experiment [32] concerns the target HLA-A*02:11. The experiment is described as above. As to conditions: source organism: Burkholderia pseudomallei 668.
For experiment [33], the target named is HLA-A*68:02. The description is as above. As to conditions: source organism: Burkholderia pseudomallei 668.
Experiment [34] addresses HLA-A*26:01. Described as above. The conditions noted are these: source organism: Burkholderia pseudomallei 668.
Experiment [35] addresses HLA-B*18:01. The description is as above. The conditions noted are these: source organism: Burkholderia pseudomallei 668.
In experiment [36] the target is HLA-B*39:01. The experiment is described as above. As to conditions: source organism: Burkholderia pseudomallei 668.
The target of experiment [37] is HLA-B*27:03. The description is as above. The conditions noted are these: source organism: Burkholderia pseudomallei 668.
Experiment [38] concerns the target HLA-B*57:01. Described as above.
Experiment [39] addresses HLA-A*02:01. The experiment is described as above. As to conditions: source organism: Burkholderia pseudomallei 668.
For experiment [40], the target named is HLA-A*69:01. The description is as above. As to conditions: source organism: Burkholderia pseudomallei 668.
The target in experiment [41] is HLA-B*15:42. Described as above. As to conditions: source organism: Burkholderia pseudomallei 668.
For experiment [42], the target named is HLA-B*44:02. The description is as above. The conditions noted are these: source organism: Escherichia coli O139:H28 str. E24377A.
Setting [43] is: source organism: Mycobacterium tuberculosis.
Setting [44] is: source organism: Burkholderia pseudomallei 668.
Setting [45] is: source organism: Escherichia coli.
Where [46] appears, read: source organism: Escherichia coli O139:H28 str. E24377A.

Take ALYLLDGLR: the Kd in experiment [1] was not below 20 µM; in [2], not below 20 µM; in experiment [3], not below 20 µM; in experiment [4], 0.106 µM; in experiment [5] it was not below 20 µM; in experiment [6], not below 20 µM. The Kd in experiment [7] is not below 20 µM; in experiment [8], not below 20 µM; in experiment [9], 7.37 µM; in [10] (setting [43]), not below 20 µM; in [11] it was not below 20 µM; in experiment [12], not below 20 µM. For the same sequence, the Kd in experiment [13] is not below 20 µM; in [14] (setting [43]), not below 20 µM; in experiment [15], not below 20 µM; in experiment [16] it was not below 20 µM; in experiment [17], 1.21 µM; in experiment [18], 1 µM. Also, the values for the Kd in [19] and in experiment [20] (source organism: Mycolicibacterium gilvum PYR-GCK) were not below 20 µM and 0.446 µM, respectively.

With FSSQLGLFY, the IC50 in [21] amounted to 2.97 µM. This sequence also yielded a Kd in experiment [22] of 0.947 µM.

In turn, IEDKNLYMF had a Kd in experiment [23] (source organism: Bacillus mycoides KBAB4) of 0.0127 µM.

Consider ILFDRLPIA, for which the Kd in [24] is not below 20 µM; in experiment [25] it was not below 20 µM; in experiment [26] it was not below 5 µM; in [27] it was not below 5 µM; in [28], not below 20 µM; in experiment [29] it was not below 20 µM. In addition, the Kd in experiment [30] was not below 20 µM; in [31], not below 20 µM; in [32] it was not above 0.0001 µM; in experiment [33] it was not below 20 µM; in [34], not below 20 µM; in [35], not below 20 µM. For the same sequence, the Kd was not below 20 µM in [36]; not below 20 µM in [37]; not below 20 µM in [20] (setting [44]); not below 20 µM in [38] (setting [44]); not above 0.0001 µM in experiment [39]; not below 20 µM in experiment [40]. For the same sequence, the dissociation constant (Kd) in experiment [41] was determined as 0.97 µM.

For the sequence WEKAWPAVF, the Kd in experiment [23] (source organism: Escherichia coli O157:H7 str. EDL933) worked out at 0.096 µM.

For WSILRQRCW, the Kd in experiment [10] (setting [45]) was 0.0934 µM; in [14] (setting [45]), 0.0521 µM; in [42], not below 20 µM; in experiment [20] (setting [46]), 0.0052 µM; in experiment [38] (setting [46]), 0.108 µM.

Usually Kd stands for the concentration at which binding is half-saturated. Read a high Kd as a looser complex. Broadly, the IC50 is the midpoint of a concentration-inhibition curve.
